Reference: the supplement of paper PMC11908140

B1: library; numbered along this chain (parent)
chain: MRKPRAAVGSGHRKQAASQEGRQKHAKNNSQAKPSACDGLARQPEEVVLQASVSSYHLFRDVAEVTAFRGSLLSWYDQEKRDLPWRRRAEDEMDLDRRAYAVWVSEVMLQQTQVATVINYYTGWMQKWPTLQDLASASLEEVNQLWAGLGYYSRGRRLQEGARKVVEELGGHMPRTAETLQQLLPGVGRYTAGAIASIAFGQATGVVDGNVARVLCRVRAIGADPSSTLVSQQLWGLAQQLVDPARPGDFNQAAMELGATVCTPQRPLCSQCPVESLCRARQRVEQEQLLASGSLSGSPDVEECAPNTGQCHLCLPPSEPWDQTLGVVNFPRKASRKPPREESSATCVLEQPGALGAQILLVQRPNSGLLAGLWEFPSVTWEPSEQLQRKALLQELQRWAGPLPATHLRHLGEVVHTFSHIKLTYQVYGLALEGQTPVTTVPPGARWLTQEEFHTAAVSTAMKKVFRVYQGQQPGTCMGSKRSQVSSPCSRKKPRMGQQVLDNFFRSHISTDAHSLNSAAQ

Variants of: B1
Experiment: 8OG:A repair function score (normalized; synonymous = 0, nonsense = -1) (normalized log-likelihood score); higher = more repair activity (WT-like)
Settings: with 8OG:A DNA repair reporter (GFP) in HEK-293 MUTYH KO cells
Method: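 Saturation mutagenesis (NNN codon scan) of the MUTYH cDNA (521-aa nuclear isoform NM_001048174.1 / NP_001041639), stably expressed under doxycycline induction in HEK-293 MUTYH knockout cells. Cells were co-transfected with an 8OG:A-bearing GFP repair reporter plus mCherry and sorted 72 h later into GFP+ and GFP− bins, three replicates per tile. The Rosace log2 enrichment (GFP+ vs GFP−) was converted per tile to a normalized function score with synonymous variants centered at 0 and nonsense variants (codons 1-471) at -1; low-abundance variants were removed.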

In order of rising “8OG:A repair function score” value:
1. MRKPRAAVGSGHRKQAASQEGRQKHAKNNSQAKPSACDGLARQPEEVVLQASVSSYHLFRDVAEVTAFRGSLLSWYDQEKRDLPWRRRAEDEMDLDRRAYAVWVSEVMLQQTQVATVKNYYTGWMQKWPTLQDLASASLEEVNQLWAGLGYYSRGRRLQEGARKVVEELGGHMPRTAETLQQLLPGVGRYTAGAIASIAFGQATGVVDGNVARVLCRVRAIGADPSSTLVSQQLWGLAQQLVDPARPGDFNQAAMELGATVCTPQRPLCSQCPVESLCRARQRVEQEQLLASGSLSGSPDVEECAPNTGQCHLCLPPSEPWDQTLGVVNFPRKASRKPPREESSATCVLEQPGALGAQILLVQRPNSGLLAGLWEFPSVTWEPSEQLQRKALLQELQRWAGPLPATHLRHLGEVVHTFSHIKLTYQVYGLALEGQTPVTTVPPGARWLTQEEFHTAAVSTAMKKVFRVYQGQQPGTCMGSKRSQVSSPCSRKKPRMGQQVLDNFFRSHISTDAHSLNSAAQ [I118K]  -0.483
2. MRKPRAAVGSGHRKQAASQEGRQKHAKNNSQAKPSACDGLARQPEEVVLQASVSSYHLFRDVAEVTAFRGSLLSWYDQEKRDLPWRRRAEDEMDLDRRAYAVWVSEVMLQQTQVATVMNYYTGWMQKWPTLQDLASASLEEVNQLWAGLGYYSRGRRLQEGARKVVEELGGHMPRTAETLQQLLPGVGRYTAGAIASIAFGQATGVVDGNVARVLCRVRAIGADPSSTLVSQQLWGLAQQLVDPARPGDFNQAAMELGATVCTPQRPLCSQCPVESLCRARQRVEQEQLLASGSLSGSPDVEECAPNTGQCHLCLPPSEPWDQTLGVVNFPRKASRKPPREESSATCVLEQPGALGAQILLVQRPNSGLLAGLWEFPSVTWEPSEQLQRKALLQELQRWAGPLPATHLRHLGEVVHTFSHIKLTYQVYGLALEGQTPVTTVPPGARWLTQEEFHTAAVSTAMKKVFRVYQGQQPGTCMGSKRSQVSSPCSRKKPRMGQQVLDNFFRSHISTDAHSLNSAAQ [I118M]  -0.277
3. MRKPRAAVGSGHRKQAASQEGRQKHAKNNSQAKPSACDGLARQPEEVVLQASVSSYHLFRDVAEVTAFRGSLLSWYDQEKRDLPWRRRAEDEMDLDRRAYAVWVSEVMLQQTQVATVWNYYTGWMQKWPTLQDLASASLEEVNQLWAGLGYYSRGRRLQEGARKVVEELGGHMPRTAETLQQLLPGVGRYTAGAIASIAFGQATGVVDGNVARVLCRVRAIGADPSSTLVSQQLWGLAQQLVDPARPGDFNQAAMELGATVCTPQRPLCSQCPVESLCRARQRVEQEQLLASGSLSGSPDVEECAPNTGQCHLCLPPSEPWDQTLGVVNFPRKASRKPPREESSATCVLEQPGALGAQILLVQRPNSGLLAGLWEFPSVTWEPSEQLQRKALLQELQRWAGPLPATHLRHLGEVVHTFSHIKLTYQVYGLALEGQTPVTTVPPGARWLTQEEFHTAAVSTAMKKVFRVYQGQQPGTCMGSKRSQVSSPCSRKKPRMGQQVLDNFFRSHISTDAHSLNSAAQ [I118W]  -0.13
4. MRKPRAAVGSGHRKQAASQEGRQKHAKNNSQAKPSACDGLARQPEEVVLQASVSSYHLFRDVAEVTAFRGSLLSWYDQEKRDLPWRRRAEDEMDLDRRAYAVWVSEVMLQQTQVATVPNYYTGWMQKWPTLQDLASASLEEVNQLWAGLGYYSRGRRLQEGARKVVEELGGHMPRTAETLQQLLPGVGRYTAGAIASIAFGQATGVVDGNVARVLCRVRAIGADPSSTLVSQQLWGLAQQLVDPARPGDFNQAAMELGATVCTPQRPLCSQCPVESLCRARQRVEQEQLLASGSLSGSPDVEECAPNTGQCHLCLPPSEPWDQTLGVVNFPRKASRKPPREESSATCVLEQPGALGAQILLVQRPNSGLLAGLWEFPSVTWEPSEQLQRKALLQELQRWAGPLPATHLRHLGEVVHTFSHIKLTYQVYGLALEGQTPVTTVPPGARWLTQEEFHTAAVSTAMKKVFRVYQGQQPGTCMGSKRSQVSSPCSRKKPRMGQQVLDNFFRSHISTDAHSLNSAAQ [I118P]  -0.112
5. MRKPRAAVGSGHRKQAASQEGRQKHAKNNSQAKPSACDGLARQPEEVVLQASVSSYHLFRDVAEVTAFRGSLLSWYDQEKRDLPWRRRAEDEMDLDRRAYAVWVSEVMLQQTQVATVSNYYTGWMQKWPTLQDLASASLEEVNQLWAGLGYYSRGRRLQEGARKVVEELGGHMPRTAETLQQLLPGVGRYTAGAIASIAFGQATGVVDGNVARVLCRVRAIGADPSSTLVSQQLWGLAQQLVDPARPGDFNQAAMELGATVCTPQRPLCSQCPVESLCRARQRVEQEQLLASGSLSGSPDVEECAPNTGQCHLCLPPSEPWDQTLGVVNFPRKASRKPPREESSATCVLEQPGALGAQILLVQRPNSGLLAGLWEFPSVTWEPSEQLQRKALLQELQRWAGPLPATHLRHLGEVVHTFSHIKLTYQVYGLALEGQTPVTTVPPGARWLTQEEFHTAAVSTAMKKVFRVYQGQQPGTCMGSKRSQVSSPCSRKKPRMGQQVLDNFFRSHISTDAHSLNSAAQ [I118S]  -0.0993
6. MRKPRAAVGSGHRKQAASQEGRQKHAKNNSQAKPSACDGLARQPEEVVLQASVSSYHLFRDVAEVTAFRGSLLSWYDQEKRDLPWRRRAEDEMDLDRRAYAVWVSEVMLQQTQVATVQNYYTGWMQKWPTLQDLASASLEEVNQLWAGLGYYSRGRRLQEGARKVVEELGGHMPRTAETLQQLLPGVGRYTAGAIASIAFGQATGVVDGNVARVLCRVRAIGADPSSTLVSQQLWGLAQQLVDPARPGDFNQAAMELGATVCTPQRPLCSQCPVESLCRARQRVEQEQLLASGSLSGSPDVEECAPNTGQCHLCLPPSEPWDQTLGVVNFPRKASRKPPREESSATCVLEQPGALGAQILLVQRPNSGLLAGLWEFPSVTWEPSEQLQRKALLQELQRWAGPLPATHLRHLGEVVHTFSHIKLTYQVYGLALEGQTPVTTVPPGARWLTQEEFHTAAVSTAMKKVFRVYQGQQPGTCMGSKRSQVSSPCSRKKPRMGQQVLDNFFRSHISTDAHSLNSAAQ [I118Q]  -0.0947
7. MRKPRAAVGSGHRKQAASQEGRQKHAKNNSQAKPSACDGLARQPEEVVLQASVSSYHLFRDVAEVTAFRGSLLSWYDQEKRDLPWRRRAEDEMDLDRRAYAVWVSEVMLQQTQVATVTNYYTGWMQKWPTLQDLASASLEEVNQLWAGLGYYSRGRRLQEGARKVVEELGGHMPRTAETLQQLLPGVGRYTAGAIASIAFGQATGVVDGNVARVLCRVRAIGADPSSTLVSQQLWGLAQQLVDPARPGDFNQAAMELGATVCTPQRPLCSQCPVESLCRARQRVEQEQLLASGSLSGSPDVEECAPNTGQCHLCLPPSEPWDQTLGVVNFPRKASRKPPREESSATCVLEQPGALGAQILLVQRPNSGLLAGLWEFPSVTWEPSEQLQRKALLQELQRWAGPLPATHLRHLGEVVHTFSHIKLTYQVYGLALEGQTPVTTVPPGARWLTQEEFHTAAVSTAMKKVFRVYQGQQPGTCMGSKRSQVSSPCSRKKPRMGQQVLDNFFRSHISTDAHSLNSAAQ [I118T]  -0.0724
8. MRKPRAAVGSGHRKQAASQEGRQKHAKNNSQAKPSACDGLARQPEEVVLQASVSSYHLFRDVAEVTAFRGSLLSWYDQEKRDLPWRRRAEDEMDLDRRAYAVWVSEVMLQQTQVATVNNYYTGWMQKWPTLQDLASASLEEVNQLWAGLGYYSRGRRLQEGARKVVEELGGHMPRTAETLQQLLPGVGRYTAGAIASIAFGQATGVVDGNVARVLCRVRAIGADPSSTLVSQQLWGLAQQLVDPARPGDFNQAAMELGATVCTPQRPLCSQCPVESLCRARQRVEQEQLLASGSLSGSPDVEECAPNTGQCHLCLPPSEPWDQTLGVVNFPRKASRKPPREESSATCVLEQPGALGAQILLVQRPNSGLLAGLWEFPSVTWEPSEQLQRKALLQELQRWAGPLPATHLRHLGEVVHTFSHIKLTYQVYGLALEGQTPVTTVPPGARWLTQEEFHTAAVSTAMKKVFRVYQGQQPGTCMGSKRSQVSSPCSRKKPRMGQQVLDNFFRSHISTDAHSLNSAAQ [I118N]  -0.0549
9. MRKPRAAVGSGHRKQAASQEGRQKHAKNNSQAKPSACDGLARQPEEVVLQASVSSYHLFRDVAEVTAFRGSLLSWYDQEKRDLPWRRRAEDEMDLDRRAYAVWVSEVMLQQTQVATVLNYYTGWMQKWPTLQDLASASLEEVNQLWAGLGYYSRGRRLQEGARKVVEELGGHMPRTAETLQQLLPGVGRYTAGAIASIAFGQATGVVDGNVARVLCRVRAIGADPSSTLVSQQLWGLAQQLVDPARPGDFNQAAMELGATVCTPQRPLCSQCPVESLCRARQRVEQEQLLASGSLSGSPDVEECAPNTGQCHLCLPPSEPWDQTLGVVNFPRKASRKPPREESSATCVLEQPGALGAQILLVQRPNSGLLAGLWEFPSVTWEPSEQLQRKALLQELQRWAGPLPATHLRHLGEVVHTFSHIKLTYQVYGLALEGQTPVTTVPPGARWLTQEEFHTAAVSTAMKKVFRVYQGQQPGTCMGSKRSQVSSPCSRKKPRMGQQVLDNFFRSHISTDAHSLNSAAQ [I118L]  -0.0284
10. MRKPRAAVGSGHRKQAASQEGRQKHAKNNSQAKPSACDGLARQPEEVVLQASVSSYHLFRDVAEVTAFRGSLLSWYDQEKRDLPWRRRAEDEMDLDRRAYAVWVSEVMLQQTQVATVHNYYTGWMQKWPTLQDLASASLEEVNQLWAGLGYYSRGRRLQEGARKVVEELGGHMPRTAETLQQLLPGVGRYTAGAIASIAFGQATGVVDGNVARVLCRVRAIGADPSSTLVSQQLWGLAQQLVDPARPGDFNQAAMELGATVCTPQRPLCSQCPVESLCRARQRVEQEQLLASGSLSGSPDVEECAPNTGQCHLCLPPSEPWDQTLGVVNFPRKASRKPPREESSATCVLEQPGALGAQILLVQRPNSGLLAGLWEFPSVTWEPSEQLQRKALLQELQRWAGPLPATHLRHLGEVVHTFSHIKLTYQVYGLALEGQTPVTTVPPGARWLTQEEFHTAAVSTAMKKVFRVYQGQQPGTCMGSKRSQVSSPCSRKKPRMGQQVLDNFFRSHISTDAHSLNSAAQ [I118H]  0.000662
11. MRKPRAAVGSGHRKQAASQEGRQKHAKNNSQAKPSACDGLARQPEEVVLQASVSSYHLFRDVAEVTAFRGSLLSWYDQEKRDLPWRRRAEDEMDLDRRAYAVWVSEVMLQQTQVATVVNYYTGWMQKWPTLQDLASASLEEVNQLWAGLGYYSRGRRLQEGARKVVEELGGHMPRTAETLQQLLPGVGRYTAGAIASIAFGQATGVVDGNVARVLCRVRAIGADPSSTLVSQQLWGLAQQLVDPARPGDFNQAAMELGATVCTPQRPLCSQCPVESLCRARQRVEQEQLLASGSLSGSPDVEECAPNTGQCHLCLPPSEPWDQTLGVVNFPRKASRKPPREESSATCVLEQPGALGAQILLVQRPNSGLLAGLWEFPSVTWEPSEQLQRKALLQELQRWAGPLPATHLRHLGEVVHTFSHIKLTYQVYGLALEGQTPVTTVPPGARWLTQEEFHTAAVSTAMKKVFRVYQGQQPGTCMGSKRSQVSSPCSRKKPRMGQQVLDNFFRSHISTDAHSLNSAAQ [I118V]  0.00363
12. MRKPRAAVGSGHRKQAASQEGRQKHAKNNSQAKPSACDGLARQPEEVVLQASVSSYHLFRDVAEVTAFRGSLLSWYDQEKRDLPWRRRAEDEMDLDRRAYAVWVSEVMLQQTQVATVRNYYTGWMQKWPTLQDLASASLEEVNQLWAGLGYYSRGRRLQEGARKVVEELGGHMPRTAETLQQLLPGVGRYTAGAIASIAFGQATGVVDGNVARVLCRVRAIGADPSSTLVSQQLWGLAQQLVDPARPGDFNQAAMELGATVCTPQRPLCSQCPVESLCRARQRVEQEQLLASGSLSGSPDVEECAPNTGQCHLCLPPSEPWDQTLGVVNFPRKASRKPPREESSATCVLEQPGALGAQILLVQRPNSGLLAGLWEFPSVTWEPSEQLQRKALLQELQRWAGPLPATHLRHLGEVVHTFSHIKLTYQVYGLALEGQTPVTTVPPGARWLTQEEFHTAAVSTAMKKVFRVYQGQQPGTCMGSKRSQVSSPCSRKKPRMGQQVLDNFFRSHISTDAHSLNSAAQ [I118R]  0.0138
